The values below come from patent publication US5705154, “Humanized monoclonal antibodies against human interleukin-4” (Schering Corporation, dated 1998).

Several values for one entry are separate records, joined by “and”; a condition that tells them apart may be missing. Identical values can stand only once.

The target in assay [1] is T1, human interleukin-4 (human, UniProt P05112, radioiodinated (125I, IODOGEN method) in the binding and competition assays; unlabelled in the reporter gene assay). Nature of the assay: apparent Kd, Scatchard analysis; purified antibody captured on anti-rat IgG Fc plates, 125I-hIL-4, room temperature.
In assay [2] the target is T1, human interleukin-4.
In assay [3] the target is T1, human interleukin-4. Nature of the assay: inhibition of 125I-hIL-4 binding to the human IL-4 receptor on Jijoye CJ cells, 4 C. How it is done:
The humanized antibodies were assayed for the ability to inhibit the binding of radiolabelled hIL-4 to the recombinant human IL-4 receptor expressed on Jijoye CJ cells in microtiter plates. Briefly, the humanized antibodies were serially diluted in cell growth medium at protein concentrations of from 8.6 nM to 4 pM. Rat antibody 25D2 was similarly diluted and used as a positive control. Jijoye CJ cells (10^5 cells) and 44 pM ^125I-hIL-4 were then added to each well (200 μl final volume per well) and the plates were incubated for 2 hours at 4° C.
Humanized antibodies h25D2-1 and h25D2-4 antibodies were assayed as described above for the ability to inhibit binding of radiolabeled hIL-4 to recombinant hIL-4 receptors expressed on the Jijoye CJ cell line.

Assay [4] concerns the target T1, human interleukin-4. Nature of the assay: apparent Kd, Scatchard analysis; antibody from COS conditioned medium captured on anti-human IgG4 Fc plates, 125I-hIL-4, room temperature. How it is done:
The wells were washed and incubated with ^125I-hIL-4 at concentrations between 4,000 and 2 pM in final volumes of 100 μl. All assays were performed in triplicate, and the background binding was determined by using a 1000-fold molar excess of unlabelled hIL4 in control wells. After incubation for 2 hours at room temperature, the wells were washed, the protein was solubilized in 75 μl of Solubilization buffer [0.1N NaOH/1% sodium dodecylsulfate (SDS)], and the solution was counted in an LKB gamma counter. Concentrations of bound and free hIL4 were determined, and the affinities of the antibodies were determined by Scatchard plot analysis [Berzofsky et al., in *Fundamental Immunology*, 1984, Paul, E. E., Ed., Raven Press, N.Y., N.Y., pp. 595–644].
All five variants of the humanized heavy chain gene were independently co-transfected into COS 7 cells with the pKM20 light chain vector. The serum-free conditioned medium was harvested after 72 hours and concentrated.

For assay [5], the target named is T1, human interleukin-4. This is another data set of the same source.
In assay [6] the target is T1, human interleukin-4. Nature of the assay: plate competition assay at room temperature; free antibody against immobilized 25D2 as competitor for 125I-hIL-4. As for the experimental part: (§1) Immunosorb plates were coated with a 60 ng/ml solution of the rat 25D2 antibody diluted in PBS (100 μl/well) for at least 16 hours at 4° C. The wells were then blocked with Blocking buffer (3% BSA in PBS) for 4 hours at room temperature. Fifty microliters of 2-fold serially diluted competing antibodies plus the appropriate amount of ^125I-hIL-4 ([…] total volume) were added to each well, and the plates were incubated at room temperature for 16–24 hours. The plates were washed 3 times with potassium phosphate, pH 7.4, plus 0.05% Tween 20. The wells were aspirated dry, and 75 μl of Solubilization buffer (0.1N NaOH/1% SDS) was added to each well and incubated for 30 minutes at room temperature. The solution was removed from each well and counted in an LKB gamma counter.
To further characterize humanized antibody variants h25D2-1 and h25D2-4, competitive binding assays with the humanized antibodies and rat antibody 25D2 were performed as described above.

The target of assay [7] is T1, human interleukin-4. Nature of the assay: plate competition assay at room temperature (about 22 C); free antibody against immobilized 25D2 as competitor for 125I-hIL-4. How it is done: as §1
A plate competition assay was carried out as described above using ^125I-hIL-4, immobilized rat antibody 25D2, and varying levels of free antibodies 25D2, h25D2-1 or h25D2-9.

As a reminder, the IC50 is the concentration that gives 50% inhibition. A lower IC50 goes with higher potency.

B1: rat monoclonal antibody 25D2 (antibody, V domains shown)
VH: ELQLVESGGGLVQPGRSLKLSCVASGFSFRSYWMTWVRQAPGKGLEWIASISISGDNTYYPDSVRGRFTISRDDAKSILYLQMNSLRSEDTATYYCVRDPYYFSGHYFDFWGQGVMVTVSS
VL: DIQMTQSPSLLSASVGDRVTLNCKASQNIYKNLAWYQQKLGEAPKFLIFNAKSLETGVPSRFSGSGSGTDFTLTISSLQPEDVATYFCQQYYSGWTFGGGTKLELKR
For the molecule B1, the Kd in assay [1] turned out to be 1 nM. In assay [2], this molecule registered an IC50, inhibition of human growth hormone expression under the germline epsilon promoter in Jijoye C12 cells with 1 ng/mL hIL-4 of 20 to 40 pM. Moreover, in assay [3], the 50% inhibitory concentration (IC50) was 0.5 to 1 nM and 1 nM.

B2: humanized antibody h25D2-1 (antibody, V domains shown)
VH: EVQLLESGGGLVQPGGSLRLSCAASGFSFRSYWMTWVRQAPGKGLEWVASISISGDNTYYPDSVRGRFTISRNDSKNTLYLQMNGLQAEVSAIYYCARDPYYFSGHYFDFWGQGTLVTVSS
VL: DIQMTQSPSSLSVSVGDRVTITCKASQNIYKNLAWYQQKPGLAPKLLIYNAKSLETGVPSRFSGSGSGTDFTFTISSLQPEDIATYYCQQYYSGWTFGQGTKVEVKR
B2: in assay [2], the IC50, inhibition of human growth hormone expression under the germline epsilon promoter in Jijoye C12 cells with 1 ng/mL hIL-4 is 120 pM. For the same molecule, in assay [4], the Kd was 4 nM. Besides, the concentration for fifty percent inhibition in the germline epsilon reporter assay, Jijoye C12 cells (FIG. 3), against 25D2 and h25D2-9 in assay [5] is 5 fold. For the same molecule, the IC50 in assay [3] was 0.5 nM and 1 nM. Also, the “fold less effective than antibody 25D2 in competition” value in assay [6] stood at 3 fold. In addition, in assay [7], the “concentration for fifty percent inhibition relative to antibody h25D2-9” value was 2 fold.
